Results taken from publication doi:10.1101/2020.07.27.223255, “Bro1 stimulates Vps4 activity to promote Intralumenal Vesicle Formation during Multivesicular Body biogenesis” (bioRxiv, 2020).
Positions count from the first letter of the chain named. In names and notes the source's numbering stands. One block for each binder: values may come before it.

Experiments:
His6-Vps4 [1] = target: T1, His6-Vps4 (S. cerevisiae, UniProt P52917 1-437); assay: cell-based or functional assay
T1 sequence (looked up): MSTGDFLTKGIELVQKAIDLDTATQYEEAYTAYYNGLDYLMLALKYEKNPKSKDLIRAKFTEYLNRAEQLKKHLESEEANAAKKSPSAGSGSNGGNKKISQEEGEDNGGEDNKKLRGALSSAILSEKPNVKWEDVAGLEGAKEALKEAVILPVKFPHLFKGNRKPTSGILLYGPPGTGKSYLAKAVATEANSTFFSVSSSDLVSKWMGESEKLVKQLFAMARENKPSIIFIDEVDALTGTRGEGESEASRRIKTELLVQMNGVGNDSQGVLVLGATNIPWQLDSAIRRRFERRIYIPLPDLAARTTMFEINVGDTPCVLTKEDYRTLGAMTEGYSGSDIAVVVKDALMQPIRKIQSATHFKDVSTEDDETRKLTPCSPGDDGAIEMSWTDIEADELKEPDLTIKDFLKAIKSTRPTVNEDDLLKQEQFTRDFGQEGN

His6-Vps4 [2] = target: T1, His6-Vps4; assay: pull-down; His6-Vps4 (10 μg) or His6-MIT on Ni-NTA agarose; 6 μg Bro1V or mutants in ATPase buffer + 0.02% Tween20, 1 hour at 30°C; four washes NiA buffer with 10 mM imidazole; eluted with 200 mM imidazole; protein stain and anti-Bro1 immunoblot; conditions: both partners purified

- binding result (His6-Vps4 [2]): binds
B4: Bro1V^M4 (V505A, H508A, I512A), GST tag removed (domain or fragment, S. cerevisiae, UniProt P48582 370-709, looked up)
chain: DVYEKESIYSEEKATLLRKQVEETETANLEYSSFIEFTNLPRLLSDLEKQFSDGNIFSNTDTQGQLMRDQIQTWCKFIQTNEFRDIEEQMNKIVFKRKQILEILSALPNDQKENVTKLKSSLVAASNSDEKLFACAKPAIVEANLLNDNGKIWKKFDEFNRNTPPQPSLLDIDDTKNDKILELLKQVKGHAEDLRTLKEERSRNLSELRDEINNDDITKLLIINKGKSDVELKDLFEVELEKFEPLSTRIEATIYKQSSMIDDIKAKLDEIFHLSNFKDKSSGEEKFLEDRKNFFDKLQEAVKSFSIFASDLPKGIEFYDSLFNMSRDLAERVRVAKQTE
notes: Bro1 V domain, S. cerevisiae, aa 370-709, mutant M4; source: E. coli BL21-DE3, purified (Glutathione Sepharose 4B, AcTEV protease to remove GST, Superdex200 size exclusion)

- binding result (His6-Vps4 [2]): binds
B5: Bro1V^M8 (E686A, L691D), GST tag removed (domain or fragment, S. cerevisiae, UniProt P48582 370-709, looked up)
chain: B4 chain with A136V, A139H, A143I, E317A, L322D
notes: Bro1 V domain, S. cerevisiae, aa 370-709, mutant M8; source: E. coli BL21-DE3, purified (Glutathione Sepharose 4B, AcTEV protease to remove GST, Superdex200 size exclusion)

Second part, the binder before the results:

B1: Bro1 V domain (Bro1V, aa 370-709), GST tag removed (domain or fragment, S. cerevisiae, UniProt P48582 370-709, looked up)
chain: B4 chain with A136V, A139H, A143I
- Vps4 (0.5μM) ATPase activity with titration of Bro1V (10nM-8μM): maximal stimulation over basal activity (Vps4 of the ATPase assay came from GST-Vps4) (His6-Vps4 [1]): 2.6 fold

B2: Bro1V^M9 (T587D), GST tag removed (domain or fragment, S. cerevisiae, UniProt P48582 370-709, looked up)
chain: B4 chain with A136V, A139H, A143I, T218D
notes: Bro1 V domain, S. cerevisiae, aa 370-709, mutant M9; source: E. coli BL21-DE3, purified (Glutathione Sepharose 4B, AcTEV protease to remove GST, Superdex200 size exclusion)
- binding result (His6-Vps4 [2]): binds

B3: Bro1V^M10 (K481D), GST tag removed (domain or fragment, S. cerevisiae, UniProt P48582 370-709, looked up)
chain: B4 chain with K112D, A136V, A139H, A143I
notes: Bro1 V domain, S. cerevisiae, aa 370-709, mutant M10; source: E. coli BL21-DE3, purified (Glutathione Sepharose 4B, AcTEV protease to remove GST, Superdex200 size exclusion)
- binding result (His6-Vps4 [2]): binds
